Columns and labels:
[1] = target: T1, human CD115 extracellular domain (Sino Biological 10161-H08H) (human, UniProt P07333 20-517); test: competition ELISA, competitor TMR 24A;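 also: clonal anti-huCD115 hybridoma supernatant antibodies bound with a competitor mouse antibody present, and failure to bind puts a clone in that competitor's epitope bin; low signal means same epitope bin as the mouse competitor antibody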
T1 construct: extracellular domain; bought recombinant protein; also called huCD115; hu-CD115

[2] = target: T1, human CD115 extracellular domain (Sino …); test: competition ELISA, competitor TMR 95A;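 also: clonal anti-huCD115 hybridoma supernatants tested for binding while a competitor mouse antibody is present, where failure to bind assigns them to that competitor's epitope bin; low signal means same epitope bin as the mouse competitor antibody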
[3] = target: T1, human CD115 extracellular domain (Sino …); test: competition ELISA, competitor TMR 44B;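 also: binding of antibodies from single-clone hybridoma supernatants to huCD115 measured with the competitor antibody present, a drop in signal meaning both share an epitope bin; low signal means same epitope bin as the mouse competitor antibody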
[4] = target: T1, human CD115 extracellular domain (Sino …); test: competition ELISA, competitor TMR 35A;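 also: clonal hybridoma supernatant antibodies added to wells after the competitor mouse antibody, lost binding signal puts an antibody in that competitor's epitope bin; low signal means same epitope bin as the mouse competitor antibody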
[5] = target: T1, human CD115 extracellular domain (Sino …); test: competition ELISA, competitor TMR 100A
[6] = target: T1, human CD115 extracellular domain (Sino …); test: competition ELISA, competitor TMR 20A
[7] = target: T1, human CD115 extracellular domain (Sino …); test: SPR ProteOn, supernatant mAb captured on anti-mouse IgG, Hu CD115 analyte

| Binder | signal vs NO COMP=100 [1] | signal vs NO COMP=100 [2] | signal vs NO COMP=100 [3] | signal vs NO COMP=100 [4] | signal vs NO COMP=100 [5] | signal vs NO COMP=100 [6] | Kd [7] | koff [7] | kon [7] |
| --- | --- | --- | --- | --- | --- | --- | --- | --- | --- |
| CCK-412A (antibody, V domains shown, AlivaMab chimeric IgG, human kappa LC) VH: not shown VL: DIQMTQSPSSVSASVGDRVTITCRASPGISSWLAWYQQKPEKAPKLLIYAASSLQSGVPSRFSGSGSGTDFTLTISSLQPEDFATYYCQQAYSFPYTFGQGTKLEIK | 13% | 3% | 110% | 78% | 91% | 70% | – | – | – |
| CCK-421A (antibody, V domains shown, AlivaMab chimeric IgG, human kappa LC) VH: QVQLQESGPGLVKPSETLSLTCTVTGGSISSYYWSWIRQPAGKGLEWIGRIYTSGSTNYNPSLKSRVTMSVDTSKNHFSLKLSSVTAADTAVYYCAREILVVVAATRTGGVFDIWGQGTMVTVSS VL: DIQMTQSPSTLSASVGDRVTITCRASQSISSWLAWYQRKPGKAPKLLIYKASTLESGVPSRFSGSGSGTEFTLTISSLQPDDFATYYCQQFNSYWTFGQGTKVEIK | 18% | 9% | 55% | 100% | 99% | 104% | – | – | – |
| CCK-435A (antibody, V domains shown, AlivaMab chimeric IgG, human kappa LC) VH: QVQLQQWGAGLLKPSETLSLTCAVYGGSCSAYYWSWIRQPPGKGLEWIGEINHSGSTNYNPSLKSRVTISVDTSRNQFSLKLSSVTAADTAVYYCAREADAFDIWGQGTMVTVSS VL: not shown | 79% | 86% | 75% | 96% | 17% | 85% | – | – | – |
| CCK-542A (antibody, V domains shown, AlivaMab chimeric IgG, human kappa LC) VH: QVQLQESGPGLVKPSETLSLTCTVSGGSISSYYWSWIRQPAGKGLEWIGRIYSSGSINYNPSLKSRVTMSVDTSKNQFSLKLSSVTAADTAVFYCARDRAFYGMDVWGQGTTVTVSS VL: not shown | 94% | 23% | 10% | 111% | 76% | 7% | – | – | – |
| CCK-505A (antibody, V domains shown, AlivaMab chimeric IgG, human kappa LC) VH: EVQLVESGGGLVQPGGSLRLSCAASGFTFSSYSMNWVRQAPGKGLEWVSYISSSSSTIYYADSVKGRFTISRDNAKNSLYLQMNSLRDEDTAVYYCAREGERFCGADCYPHWFDPWGQGTLVTVSS VL: not shown | 0% | 1% | 10% | 110% | 111% | 53% | – | – | – |
| CCL-217A (antibody, V domains shown, AlivaMab chimeric IgG, human lambda LC) VH: QVQLQESGPGLVKPSETLSLTCTVSGGSISSYYWSWIRQPAGKGLEWIGRIYSSGTTNYNPSLKSRVTMSVETSKNQFSLNLSSVTAADTAVYYCARERITGHFDYWGQGTLVTVSS VL: not shown | – | – | – | – | – | – | 1.22 nM | 0.00012 s⁻¹ | 98100 M⁻¹ s⁻¹ |
| CCK-522A (antibody, V domains shown, AlivaMab chimeric IgG, human kappa LC) VH: QITLKESGPTLVKPTQTLTLTCTFSGFSLSTSGVGVGWIRQPPGKALEWLALIYWNDDKRYSPSLKSRLTITKDTSKNQVVLTMTNMDPVDTATYYCAHQERRSGWSFDYWGQGTLVSVSS VL: not shown | 33% | 7% | 24% | – | 67% | 34% | – | – | – |
| CCL-340A (antibody, V domains shown, AlivaMab chimeric IgG, human lambda LC) VH: EVQLVESGGGLVKPGGSLRLSCAASGFTFSSYSMKWVRQAPVKGLEWVSSISSSSSYIYYGDSVKGRFTISRDNAKNSLYLQMNSLRAEDTAVYYCARERLGRAFDIWGQGTMVTVSS VL: not shown | – | – | – | – | – | – | 0.367 nM | 2.72e-05 s⁻¹ | 74100 M⁻¹ s⁻¹ |
| CCK-461A (antibody, V domains shown, AlivaMab chimeric IgG, human kappa LC) VH: QVQLQESGPGLVKPSETLSLTCTVSGGSISSYYWTWIRQPPGKGLEWIGYISYSGGTNYNPSLKSRVTISVDTSKNQFSLKLSSVTAADTAVYYCARELGNYWGQGTLVTVSS VL: not shown | 27% | 15% | 41% | 110% | 110% | 110% | – | – | – |
| CCK-455A (antibody, V domains shown, AlivaMab chimeric IgG, human kappa LC) VH: EVQLVESGGGLVQPGGSLRLSCAASGFTFSSYWMHWVRQAPGKGLVWVSRINSDGSSTSYADSVKGRFTISRDNAKNTLYLQMNSLRAEDTAVYYCARDGGTTGAFDIWGQGTMVTVSS VL: not shown | -1% | 0% | 28% | 54% | 79% | 58% | – | – | – |
| CCK-458A (antibody, V domains shown, AlivaMab chimeric IgG, human kappa LC) VH: QITLKESGPPLVKPTQTLTLTCTFSGFSLSTSGVGVGWIRQPPGKALEWLALIYWNDDKRYSPSLKSRLTITKDTSKNQVVLTMTNMDPVDTATYYCAHSPRYSGYFDYWGQGTLVTVSS VL: not shown | 2% | 6% | 17% | 66% | 79% | 22% | – | – | – |
| CCL-313A (antibody, V domains shown, AlivaMab chimeric IgG, human lambda LC) VH: QVQLQESGPGLVKPSETLSLTCTVSGGSISSYYWSWIRQPPGKGLEWIGYIYYTGSTNYNPSLKSRVTISVDTSKNQFSLKLSSVTAADTAVYYCARGWWELTFFDYWGQGTLVTVSS VL: not shown | – | – | – | – | – | – | 1.24 nM | 9.09e-05 s⁻¹ | 73600 M⁻¹ s⁻¹ |
| CCK-511A (antibody, V domains shown, AlivaMab chimeric IgG, human kappa LC) VH: EVQVVESGGGLVQPGKSLRLSCAASGFPFSVYWMTWVRQAPGKGLEWVANIKQDGSEKYYVDSVKGRFTISRDNAKNSLYLQMNSLRAEDTAVYCCASGYHLFDYWGQGTLVTVSS VL: not shown | 99% | 3% | 2% | 76% | 91% | 77% | – | – | – |
| CCK-526A (antibody, V domains shown, AlivaMab chimeric IgG, human kappa LC) VH: EVQVVESGGGLVQPGKSLRLSCAASGFTFSTYWMTWVRQAPGKGLEWVANIKQDGSEKYYVDSVKGRFTISRDNAKNSLYLQMNSLRAEDTAVYCCASGYHLFDYWGQGTLVTVSS VL: not shown | 68% | 9% | 3% | 82% | 84% | 92% | – | – | – |
| CCK-402A (antibody, V domains shown, AlivaMab chimeric IgG, human kappa LC) VH: not shown VL: DIVMTQTPLSLPVTPGEPASISCRSSQSLLDSDDGNTYLDWFLQKPGQSPQLLIYTLSYRASGVPDRFSGSGSGTDFTLKISRVEADDVGVYYCMQRIEFPFTFGQGTKLEIK | 131% | 131% | 126% | 11% | 147% | 145% | – | – | – |
| CCL-231A (antibody, V domains shown, AlivaMab chimeric IgG, human lambda LC) VH: QVQLQESGPGLVKPSETLSLTCTVSGGSISSYYWSWIRQPAGKGLEWIGRIYTSGNTNYNPSLKSRVTMSLDTSKNQFSLKLSSVTAADTAVYYCARVGAIGVDAFDIWGQGTMVTVSS VL: QSALTQPASVSGSPGQSITISCTGTSSDVGSYNLVSWYQQHPGKAPKLMIYEGSKRPSGVSNRFSGSKSGNTASLTISGLQAEDEADYYCCSYAGSSTFVVFGGGTKLTVL | – | – | – | – | – | – | 0.578 nM | 4.71e-05 s⁻¹ | 81000 M⁻¹ s⁻¹ |
| CCK-422A (antibody, V domains shown, AlivaMab chimeric IgG, human kappa LC) VH: QVQLQESGPGLVKPSETLSLTCSVSGGSISSYYWSWIRQPPGKGLEWIGYVSYSGGTNYNPSLKSRVTISVDTSKNQFSLKLSSVTAADTAVYYCARGFDYWGQGTLVTVSS VL: not shown | 11% | 6% | 31% | 111% | 111% | 107% | – | – | – |
| CCK-424A (antibody, V domains shown, AlivaMab chimeric IgG, human kappa LC) VH: QVQLQESGPGLVKPSETLSLTCTVSGGSISSYYWSWIRQPPGKVLEWIGYFSYNGNTNYNPSLKSRVTISVDTSKNQFSLKLSSVTAADTAVYYCTRGMDVWGQGTTVTVSS VL: DIQMTQSPSTLSASVGDRVTITCRASQSISDWLAWYLQKPGKAPKLLIYKASSLESGVPSRFSGSGSGTAFTLTISSLQPDDFATYYCQQYNSHWTFGQGTKVEIK | 29% | 16% | 53% | 102% | 98% | 98% | – | – | – |
| CCL-225A (antibody, V domains shown, AlivaMab chimeric IgG, human lambda LC) VH: EVQLVESGGGLVKPGGSLRLSCAASGFTFSSYNMNWVRQAPGKGLEWVSSISSSSNYIYYADSVKGRFTISGDTAKNSLFLQMISLRVEDTAVYYCARDRLGIPFDYWGQGSLVTVSS VL: not shown | – | – | – | – | – | – | 0.277 nM | 1.38e-05 s⁻¹ | 50000 M⁻¹ s⁻¹ |
| CCK-417A (antibody, V domains shown, AlivaMab chimeric IgG, human kappa LC) VH: QVTLRESGPALVKPTQTLTLTCTFSGFSLSTSGMCVSWIRQPPGKALECLALIDWDDDKYYSTSLKTRLTISKDTSKNQVVLTMTNMDPVDTATYYCARTQLGIADYWGQGTLVTVSS VL: AIRMTQSPSSFSASTGDRVTITCRASQGISSYLAWYQQKPGKAPKLLIYAASTLQSGVPSRFSGSGSGTDFTLTISCLQSEDFATYYCQQYYSYPFTFGPGTKVDIK | 6% | 3% | 19% | 110% | 113% | 110% | – | – | – |

— patent publication US20180258175A1 (ABLEXIS, published 2018)
